From the supplement of paper PMC9732359
± gives the uncertainty stated by the source.

Test: protein stability index of a GFP-peptide fusion (yeast GPS) (PSI 1-4); higher = more stable; sorted into four equal gates, so the index is relative within each strain
Summary of the method: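 The protein stability index of a peptide was calculated by multiplying its read frequency in each gate by that gate's number and adding the products. The peptides were tiled 17-residue stretches of yeast proteins, fused downstream of GFP on a Cherry-expressing plasmid and carried in yeast as a pooled library. Mid-log cultures in leucine-free medium were sorted into four equal gates by GFP/Cherry ratio, and each gate's plasmids were PCR-amplified and Illumina-sequenced.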

Sequence | protein stability index (doa10∆) | protein stability index (pdr5∆) | protein stability index (san1∆) | protein stability index (ubr1∆)
GVWDVDNPLRQIPHFNN [BRR2] | 3.26 ± 0.077 | 3.24 ± 0.083 | 3.26 ± 0.065 | 3.13 ± 0.07
FTPKLIYDFITLFSSIE [ECM29] | 2.06 ± 0.073 | 2.1 ± 0.056 | 2.17 ± 0.11 | 2.38 ± 0.053
APPQRPRFNRDNKVSPA [RPS26B] | 2.79 ± 0.1 | 2.45 ± 0.11 | 3.09 ± 0.14 | 
RLIDLSGCENITDKTIE [GRR1] | 3.05 ± 0.068 | 3.21 ± 0.093 | 2.85 ± 0.079 | 2.88 ± 0.093
IVDPTAEQLKISLSVHT [RRP46] | 1.64 ± 0.042 | 1.81 ± 0.044 | 2.34 ± 0.057 | 2.04 ± 0.043
SDSSSEDEVKVEGPKFT [YLR335W/NUP2] | 3.4 ± 0.12 | 3.47 ± 0.13 | 3.4 ± 0.06 | 3.44 ± 0.16
SSHAKGIVLEKLGIESK [RPS23A] | 3.02 ± 0.15 | 2.88 ± 0.13 | 2.67 ± 0.095 | 3.17 ± 0.17
QIQKNVDLLQFPWLNAI [POP3] | 2.29 ± 0.07 | 2.09 ± 0.073 | 3.32 ± 0.11 | 2.35 ± 0.06
PAAANLDALVDCENFFN [YJL039C/NUP192] | 2.71 ± 0.085 | 2.77 ± 0.08 | 2.64 ± 0.057 | 2.7 ± 0.093
GASTGNANTGFSFGGTQ [YGL172W/NUP49] | 2.06 ± 0.067 | 2.12 ± 0.054 | 1.58 ± 0.097 | 2.33 ± 0.063
LRLRGGIIEPSLKALAS [RPL40A] | 3.1 ± 0.046 | 3.02 ± 0.048 | 2.7 ± 0.048 | 3.02 ± 0.045
FTNLGIIVQYLTKFRQK [RGR1] | 2.46 ± 0.053 | 2.64 ± 0.087 | 2.35 ± 0.066 | 2.28 ± 0.07
KINPFGFEQVKIALGSP [RRI2] | 2.65 ± 0.08 | 2.91 ± 0.053 | 2.77 ± 0.068 | 2.78 ± 0.07
MSGYDRALSIFSPDGHI [PRE6] | 2.82 ± 0.12 | 2.38 ± 0.14 | 2.76 ± 0.09 | 2.69 ± 0.077
SKKTGQFNAQGVRDINC [POP1] |  |  | 3.16 ± 0.12 | 
KKRREYFPEGYNNKVGV [SIR2] | 2.42 ± 0.13 | 3.56 ± 0.19 | 2.54 ± 0.2 | 2.69 ± 0.047
SLLGGFDENIARDIISH [PCI8] | 2.83 ± 0.058 | 2.83 ± 0.048 | 2.71 ± 0.044 | 2.82 ± 0.046
QQQIESNEEQRNLDSAT [SMC3] |  |  | 3.43 ± 0.091 | 
YKMVQEQLSKQRDLYKR [SMC2] | 3.1 ± 0.097 | 3.03 ± 0.087 | 2.45 ± 0.16 | 3.09 ± 0.063
NLETLVTTKDDLSGADI [RPT2] | 3.15 ± 0.067 | 3.34 ± 0.085 | 3.27 ± 0.037 | 3.34 ± 0.057
FQKETNMKVTILHGSKS [PRP28] |  | 3.38 ± 0.29 | 3.21 ± 0.093 | 3.18 ± 0.21
DFQPTELFDILSTSEDV [IRR1] | 3.04 ± 0.11 | 2.42 ± 0.1 | 2.82 ± 0.074 | 3.08 ± 0.081
KKVNYKVTSYDITGDIR [ISW2] | 2.72 ± 0.058 | 2.51 ± 0.055 | 2.83 ± 0.068 | 2.67 ± 0.051
PHIIAVACLFITISIHG [SSN8] | 1.17 ± 0.055 | 1.3 ± 0.049 | 1.34 ± 0.11 | 1.47 ± 0.062
PDSNHLSSETGIKLALD [SRB4] | 3.3 ± 0.087 | 3.35 ± 0.073 | 3.33 ± 0.058 | 3.37 ± 0.066
KDSVTECSKDMKEDGLS [SIR4] | 3.21 ± 0.12 | 3.45 ± 0.066 | 3.23 ± 0.07 | 3.32 ± 0.049

Sequence | protein stability index (doa10∆) | protein stability index (pdr5∆) | protein stability index (san1∆) | protein stability index (ubr1∆)
PNSERSGTPTLKKNIEP [YOR098C/NUP1] | 3.32 ± 0.14 | 3.26 ± 0.097 | 2.72 ± 0.24 | 3.07 ± 0.082
HIKKLLHQYYGDDESKI [FAS1] | 2.24 ± 0.084 | 2.9 ± 0.085 | 3.07 ± 0.074 | 3 ± 0.12
AKKKVLDVTKEAQANLL [RPO21] | 2.41 ± 0.17 | 2.73 ± 0.11 |  | 2.84 ± 0.14
HKLVFVVRIKGINKIPP [RPL7A] | 1.4 ± 0.038 | 1.57 ± 0.046 | 1.52 ± 0.094 | 1.64 ± 0.053
ELRRPGVDNLRRMGILK [RPO31] | 3.17 ± 0.079 | 2.98 ± 0.067 | 2.85 ± 0.06 | 3.08 ± 0.039
RRKKILNEIELDNLKLK [GRR1] | 3.04 ± 0.11 | 3.04 ± 0.086 | 2.76 ± 0.093 | 2.87 ± 0.068
TIKISTNDDSIKNLTVQ [RGR1] | 2.88 ± 0.13 | 3.05 ± 0.1 | 2.9 ± 0.074 | 2.96 ± 0.14
DFKAKYCDSMGRPQRKM [RPB5] | 3.44 ± 0.24 | 3.18 ± 0.15 | 3.22 ± 0.17 | 3.32 ± 0.1
NKSRSSGHFSTDSRTGQ [CDC53] | 3.03 ± 0.054 | 3.05 ± 0.052 | 3.12 ± 0.041 | 3.14 ± 0.039
VPPIASPQQFLRAHTDD [PRE2] | 2.02 ± 0.068 | 2.72 ± 0.063 | 2.17 ± 0.11 | 2.6 ± 0.087
MNQSSIDRGLFRSLFFR [RPB2] | 3.16 ± 0.16 | 2.97 ± 0.2 | 2.63 ± 0.26 | 2.94 ± 0.08
ELNSSEDILEDMNSNLQ [SMC1] | 3.38 ± 0.072 | 3.32 ± 0.072 | 3.24 ± 0.045 | 3.2 ± 0.054
LEDYVPHQSPDATRVFV [RPB2] | 2.82 ± 0.055 | 2.87 ± 0.055 | 2.97 ± 0.04 | 3.07 ± 0.04
AELDDCRGVSENVILGQ [RPO21] | 3.64 ± 0.14 | 3.68 ± 0.16 | 3.24 ± 0.07 | 3.56 ± 0.2
QLEEDENITNKVTEKVL [CSI1] | 3.2 ± 0.088 | 3.2 ± 0.09 | 3.33 ± 0.057 | 3.13 ± 0.055
VNDEEEHKQLVAEIVQN [RPC82] | 2.64 ± 0.12 | 2.54 ± 0.19 | 2.56 ± 0.14 | 1.66 ± 0.098
QAGVTKASVTIVFDNTD [SMC2] | 2.23 ± 0.071 | 2.76 ± 0.058 | 2.73 ± 0.053 | 3.09 ± 0.047
SLQYINIRGNTIRQIIL [SMD1] | 3.15 ± 0.097 | 3.26 ± 0.085 | 2.73 ± 0.1 | 2.94 ± 0.065
SVVRVLVHTQIRKTPLA [RPL3] | 1.19 ± 0.076 | 1.35 ± 0.096 | 1.11 ± 0.14 | 1.54 ± 0.046
GDTVRILDTSQSESRQK [SNU114] | 2.81 ± 0.051 | 2.96 ± 0.054 | 2.77 ± 0.05 | 2.9 ± 0.04
FRKIKLRVDEVQGKNLL [RPS1A] | 2.96 ± 0.12 | 3.48 ± 0.12 | 2.93 ± 0.13 | 3.36 ± 0.065
QGVTCLHLAVGKKWFEV [NAS6] | 2.76 ± 0.23 |  |  | 3.14 ± 0.14
ERYYELAFDKLNVPVFQ [ARP7] | 1.87 ± 0.064 | 2.17 ± 0.073 | 1.83 ± 0.1 | 2.07 ± 0.07
MFLEFQSTQTDLEKTER [SMC2] | 3.31 ± 0.1 | 2.8 ± 0.14 | 2.86 ± 0.25 | 2.64 ± 0.15
EKENRFEIVDREKNSLE [SMC4] | 2.63 ± 0.09 | 2.93 ± 0.11 | 3.1 ± 0.1 | 3.3 ± 0.085
